Source: the supplement of paper PMC9112550, “Optimization of the antimicrobial peptide Bac7 by deep mutational scanning” (BMC Biology, 2022)

test system: Escherichia coli TOP10; experiment: shrunken log2 fold change of peptide-encoding DNA abundance (4.5 h post-induction vs induction); higher = less antimicrobial activity (less host growth inhibition); details: time post-induction: 4.5 h; library: site-saturation at positions 5, 18, 19, 20
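Note: peptides expressed intracellularly from a pBAD plasmid library in pooled LB shake-flask culture, induced with 0.3% L-arabinose, DNA abundance read by NGS, three biological replicates, DESeq2 with apeglm shrinkage.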

Row | Sequence | shrunken log2 fold change
1 | RRIRLRPPRLPRPRPRPKVNPRP | 0.0232
2 | RRIRLRPPRLPRPRPRPKWMPRP | -0.00339
3 | RRIRLRPPRLPRPRPRPKWTPRP | 0.0422
4 | RRIRLRPPRLPRPRPRPKYVPRP | -0.126
5 | RRIRLRPPRLPRPRPRPLAKPRP | 0.0773
6 | RRIRLRPPRLPRPRPRPLCDPRP | -0.284
7 | RRIRLRPPRLPRPRPRPLDPPRP | 0.061
8 | RRIRLRPPRLPRPRPRPLDRPRP | 0.25
9 | RRIRLRPPRLPRPRPRPLFRPRP | -0.388
10 | RRIRLRPPRLPRPRPRPLFWPRP | 0.12
11 | RRIRLRPPRLPRPRPRPLGDPRP | 0.015
12 | RRIRLRPPRLPRPRPRPLGGPRP | 0.157
13 | RRIRLRPPRLPRPRPRPLGRPRP | 0.0726
14 | RRIRLRPPRLPRPRPRPLHEPRP | -0.00702
15 | RRIRLRPPRLPRPRPRPLHWPRP | 1.5
16 | RRIRLRPPRLPRPRPRPLIIPRP | -0.631
17 | RRIRLRPPRLPRPRPRPLKFPRP | -0.57
18 | RRIRLRPPRLPRPRPRPLKWPRP | -0.369
19 | RRIRLRPPRLPRPRPRPLLEPRP | -0.0263
20 | RRIRLRPPRLPRPRPRPLMEPRP | -0.392
21 | RRIRLRPPRLPRPRPRPLNEPRP | -0.0224
22 | RRIRLRPPRLPRPRPRPLNHPRP | -0.355
23 | RRIRLRPPRLPRPRPRPLQGPRP | -0.0384
24 | RRIRLRPPRLPRPRPRPLTIPRP | -0.0053
25 | RRIRLRPPRLPRPRPRPLYYPRP | -0.274

Row | Sequence | shrunken log2 fold change
26 | RRIRLRPPRLPRPRPRPMASPRP | 0.0148
27 | RRIRLRPPRLPRPRPRPMDSPRP | -0.172
28 | RRIRLRPPRLPRPRPRPMHCPRP | -0.00782
29 | RRIRLRPPRLPRPRPRPMHDPRP | -0.134
30 | RRIRLRPPRLPRPRPRPMHMPRP | -0.226
31 | RRIRLRPPRLPRPRPRPMILPRP | -0.677
32 | RRIRLRPPRLPRPRPRPMISPRP | 0.00361
33 | RRIRLRPPRLPRPRPRPMLQPRP | -0.0201
34 | RRIRLRPPRLPRPRPRPMMKPRP | -0.0811
35 | RRIRLRPPRLPRPRPRPMMMPRP | -0.114
36 | RRIRLRPPRLPRPRPRPMMSPRP | -0.00436
37 | RRIRLRPPRLPRPRPRPMMVPRP | -0.145
38 | RRIRLRPPRLPRPRPRPMMWPRP | 0.148
39 | RRIRLRPPRLPRPRPRPMNEPRP | -0.00493
40 | RRIRLRPPRLPRPRPRPMNHPRP | -0.409
41 | RRIRLRPPRLPRPRPRPMNPPRP | -0.0817
42 | RRIRLRPPRLPRPRPRPMNTPRP | -0.524
43 | RRIRLRPPRLPRPRPRPMPFPRP | -0.0289
44 | RRIRLRPPRLPRPRPRPMQVPRP | -0.0149
45 | RRIRLRPPRLPRPRPRPMRGPRP | 0.839
46 | RRIRLRPPRLPRPRPRPMTNPRP | -0.0811
47 | RRIRLRPPRLPRPRPRPMVLPRP | -0.239
48 | RRIRLRPPRLPRPRPRPMVNPRP | -0.0358
49 | RRIRLRPPRLPRPRPRPMVSPRP | -0.0017
50 | RRIRLRPPRLPRPRPRPMWWPRP | 1.19

Row | Sequence | shrunken log2 fold change
51 | RRIRLRPPRLPRPRPRPMYTPRP | -0.119
52 | RRIRLRPPRLPRPRPRPNAMPRP | -0.16
53 | RRIRLRPPRLPRPRPRPNCHPRP | -0.156
54 | RRIRLRPPRLPRPRPRPNCIPRP | -0.603
55 | RRIRLRPPRLPRPRPRPNCVPRP | 0.138
56 | RRIRLRPPRLPRPRPRPNDAPRP | 0.229
57 | RRIRLRPPRLPRPRPRPNFLPRP | -0.153
58 | RRIRLRPPRLPRPRPRPNGMPRP | -0.0765
59 | RRIRLRPPRLPRPRPRPNHCPRP | -0.132
60 | RRIRLRPPRLPRPRPRPNIAPRP | -0.0706
61 | RRIRLRPPRLPRPRPRPNKDPRP | -0.683
62 | RRIRLRPPRLPRPRPRPNKGPRP | -0.254
63 | RRIRLRPPRLPRPRPRPNKKPRP | -0.256
64 | RRIRLRPPRLPRPRPRPNLDPRP | -0.18
65 | RRIRLRPPRLPRPRPRPNLSPRP | -0.548
66 | RRIRLRPPRLPRPRPRPNMCPRP | 0.0102
67 | RRIRLRPPRLPRPRPRPNMNPRP | -0.68
68 | RRIRLRPPRLPRPRPRPNMWPRP | -0.235
69 | RRIRLRPPRLPRPRPRPNNMPRP | -0.703
70 | RRIRLRPPRLPRPRPRPNPMPRP | 0.0102
71 | RRIRLRPPRLPRPRPRPNSKPRP | -0.706
72 | RRIRLRPPRLPRPRPRPNSRPRP | -0.0164
73 | RRIRLRPPRLPRPRPRPNSYPRP | -0.3
74 | RRIRLRPPRLPRPRPRPNTGPRP | -0.359
75 | RRIRLRPPRLPRPRPRPNVQPRP | -0.275

Row | Sequence | shrunken log2 fold change
76 | RRIRLRPPRLPRPRPRPNWAPRP | -0.00149
77 | RRIRLRPPRLPRPRPRPNWDPRP | 0.14
78 | RRIRLRPPRLPRPRPRPNWHPRP | -0.0136
79 | RRIRLRPPRLPRPRPRPNWKPRP | -0.225
80 | RRIRLRPPRLPRPRPRPPACPRP | 0.448
81 | RRIRLRPPRLPRPRPRPPARPRP | 0.789
82 | RRIRLRPPRLPRPRPRPPAVPRP | 0.341
83 | RRIRLRPPRLPRPRPRPPDSPRP | 0.0353
84 | RRIRLRPPRLPRPRPRPPDVPRP | -0.0115
85 | RRIRLRPPRLPRPRPRPPEIPRP | 0.196
86 | RRIRLRPPRLPRPRPRPPENPRP | 0.588
87 | RRIRLRPPRLPRPRPRPPFFPRP | 0.14
88 | RRIRLRPPRLPRPRPRPPFSPRP | -0.25
89 | RRIRLRPPRLPRPRPRPPGIPRP | -0.383
90 | RRIRLRPPRLPRPRPRPPGPPRP | 0.359
91 | RRIRLRPPRLPRPRPRPPHAPRP | 1.2
92 | RRIRLRPPRLPRPRPRPPHFPRP | 0.437
93 | RRIRLRPPRLPRPRPRPPKNPRP | 0.43
94 | RRIRLRPPRLPRPRPRPPLKPRP | 0.253
95 | RRIRLRPPRLPRPRPRPPLTPRP | 0.288
96 | RRIRLRPPRLPRPRPRPPMMPRP | -0.149
97 | RRIRLRPPRLPRPRPRPPMYPRP | -0.093
98 | RRIRLRPPRLPRPRPRPPNCPRP | -0.0466
99 | RRIRLRPPRLPRPRPRPPNSPRP | 0.0409
100 | RRIRLRPPRLPRPRPRPPPCPRP | 0.846

Row | Sequence | shrunken log2 fold change
101 | RRIRLRPPRLPRPRPRPPPKPRP | 1.8
102 | RRIRLRPPRLPRPRPRPPPYPRP | 0.388
103 | RRIRLRPPRLPRPRPRPPQHPRP | 0.197
104 | RRIRLRPPRLPRPRPRPPQYPRP | -0.0075
105 | RRIRLRPPRLPRPRPRPPRDPRP | 0.531
106 | RRIRLRPPRLPRPRPRPPTKPRP | 0.288
107 | RRIRLRPPRLPRPRPRPPVVPRP | 0.218
108 | RRIRLRPPRLPRPRPRPPVWPRP | 0.591
109 | RRIRLRPPRLPRPRPRPPWMPRP | 0.167
110 | RRIRLRPPRLPRPRPRPQCEPRP | -0.153
111 | RRIRLRPPRLPRPRPRPQFMPRP | -0.462
112 | RRIRLRPPRLPRPRPRPQGTPRP | 0.0413
113 | RRIRLRPPRLPRPRPRPQGVPRP | -0.0316
114 | RRIRLRPPRLPRPRPRPQHGPRP | -0.0844
115 | RRIRLRPPRLPRPRPRPQIDPRP | 0.0696
116 | RRIRLRPPRLPRPRPRPQIEPRP | -0.155
117 | RRIRLRPPRLPRPRPRPQITPRP | -0.294
118 | RRIRLRPPRLPRPRPRPQIYPRP | -0.17
119 | RRIRLRPPRLPRPRPRPQKHPRP | -0.299
120 | RRIRLRPPRLPRPRPRPQNGPRP | -0.146
121 | RRIRLRPPRLPRPRPRPQPDPRP | -0.161
122 | RRIRLRPPRLPRPRPRPQPIPRP | 0.0892
123 | RRIRLRPPRLPRPRPRPQPQPRP | 0.396
124 | RRIRLRPPRLPRPRPRPQPSPRP | 0.169
125 | RRIRLRPPRLPRPRPRPQQPPRP | -0.208

Row | Sequence | shrunken log2 fold change
126 | RRIRLRPPRLPRPRPRPQRPPRP | 0.265
127 | RRIRLRPPRLPRPRPRPQSEPRP | -0.0331
128 | RRIRLRPPRLPRPRPRPQTWPRP | 0.0171
129 | RRIRLRPPRLPRPRPRPQVAPRP | 0.0825
130 | RRIRLRPPRLPRPRPRPQWGPRP | 0.00618
131 | RRIRLRPPRLPRPRPRPQWHPRP | -0.193
132 | RRIRLRPPRLPRPRPRPQWVPRP | -0.0367
133 | RRIRLRPPRLPRPRPRPQWYPRP | -0.426
134 | RRIRLRPPRLPRPRPRPQYEPRP | -0.166
135 | RRIRLRPPRLPRPRPRPQYGPRP | 0.0165
136 | RRIRLRPPRLPRPRPRPQYSPRP | -0.1
137 | RRIRLRPPRLPRPRPRPRDNPRP | -0.127
138 | RRIRLRPPRLPRPRPRPRDPPRP | 0.968
139 | RRIRLRPPRLPRPRPRPRFKPRP | 0.0114
140 | RRIRLRPPRLPRPRPRPRGYPRP | 0.262
141 | RRIRLRPPRLPRPRPRPRHNPRP | -0.521
142 | RRIRLRPPRLPRPRPRPRICPRP | -0.237
143 | RRIRLRPPRLPRPRPRPRIGPRP | 0.0176
144 | RRIRLRPPRLPRPRPRPRLEPRP | 0.348
145 | RRIRLRPPRLPRPRPRPRLFPRP | 0.17
146 | RRIRLRPPRLPRPRPRPRLGPRP | 0.518
147 | RRIRLRPPRLPRPRPRPRLTPRP | 0.143
148 | RRIRLRPPRLPRPRPRPRNPPRP | -0.0997
149 | RRIRLRPPRLPRPRPRPRPCPRP | 0.421
150 | RRIRLRPPRLPRPRPRPRPHPRP | 0.364
